T1: Cdc24p fused to the GAL4 DNA binding domain (pAS1Cdc24) (S. cerevisiae, UniProt P11433 1-854)
T1 sequence: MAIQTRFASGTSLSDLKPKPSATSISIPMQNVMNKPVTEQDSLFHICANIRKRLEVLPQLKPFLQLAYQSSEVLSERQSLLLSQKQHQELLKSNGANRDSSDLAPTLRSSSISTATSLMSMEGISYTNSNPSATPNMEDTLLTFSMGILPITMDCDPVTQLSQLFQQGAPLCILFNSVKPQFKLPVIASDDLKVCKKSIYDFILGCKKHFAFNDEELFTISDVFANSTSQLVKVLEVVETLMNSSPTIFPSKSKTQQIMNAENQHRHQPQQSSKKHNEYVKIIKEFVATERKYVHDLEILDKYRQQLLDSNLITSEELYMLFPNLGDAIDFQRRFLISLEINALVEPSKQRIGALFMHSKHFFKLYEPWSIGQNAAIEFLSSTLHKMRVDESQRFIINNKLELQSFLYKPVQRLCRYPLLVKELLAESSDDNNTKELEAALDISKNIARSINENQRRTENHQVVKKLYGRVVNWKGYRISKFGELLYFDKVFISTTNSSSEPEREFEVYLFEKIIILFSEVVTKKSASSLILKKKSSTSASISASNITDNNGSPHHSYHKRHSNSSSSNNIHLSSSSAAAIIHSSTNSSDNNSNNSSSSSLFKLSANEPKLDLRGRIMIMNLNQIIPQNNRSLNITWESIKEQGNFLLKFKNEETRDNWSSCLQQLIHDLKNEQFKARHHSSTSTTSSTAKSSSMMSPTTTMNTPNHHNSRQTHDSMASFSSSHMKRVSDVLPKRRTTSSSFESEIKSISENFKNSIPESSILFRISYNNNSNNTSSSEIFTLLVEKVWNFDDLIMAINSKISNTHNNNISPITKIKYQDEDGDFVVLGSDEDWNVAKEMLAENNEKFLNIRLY

T2: MBPFar1 (Far1p residues 133–831 fused to maltose binding protein) (S. cerevisiae, UniProt P21268 133-830)
T2 sequence: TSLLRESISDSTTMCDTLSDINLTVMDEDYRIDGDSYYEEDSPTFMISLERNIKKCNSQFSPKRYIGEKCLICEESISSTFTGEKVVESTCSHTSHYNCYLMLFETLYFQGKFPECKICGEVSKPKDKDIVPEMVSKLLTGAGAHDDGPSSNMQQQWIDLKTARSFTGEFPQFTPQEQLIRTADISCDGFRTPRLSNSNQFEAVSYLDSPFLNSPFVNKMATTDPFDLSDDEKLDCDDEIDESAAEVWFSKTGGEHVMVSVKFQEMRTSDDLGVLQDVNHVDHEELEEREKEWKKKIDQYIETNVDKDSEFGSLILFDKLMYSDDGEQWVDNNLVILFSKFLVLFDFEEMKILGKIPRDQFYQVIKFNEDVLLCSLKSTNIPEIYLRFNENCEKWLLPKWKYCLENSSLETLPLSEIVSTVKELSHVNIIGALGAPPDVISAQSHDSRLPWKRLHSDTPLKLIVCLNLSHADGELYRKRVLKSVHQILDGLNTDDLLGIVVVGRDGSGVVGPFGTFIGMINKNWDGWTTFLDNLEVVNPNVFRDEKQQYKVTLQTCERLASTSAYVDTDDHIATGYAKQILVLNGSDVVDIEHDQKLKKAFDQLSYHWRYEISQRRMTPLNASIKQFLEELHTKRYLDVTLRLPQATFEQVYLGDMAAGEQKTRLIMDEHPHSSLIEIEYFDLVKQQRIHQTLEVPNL


Experiments:
[1] = molecular target: T1, Cdc24p fused to the GAL4 DNA binding …; experiment: two-hybrid
[2] = molecular target: T2, MBPFar1 (Far1p residues 133–831 fused …); experiment: […]

| Binder | fold increase in LacZ activity with Gγ overexpressed [1] | further fold increase in LacZ activity with Far1p also overexpressed [1] | binding result [2] |
| --- | --- | --- | --- |
| Ste4p (Gβ) fused to the GAL4 activation domain (pGAD424Ste4) (natural protein) MAAHQMDSITYSNNVTQQYIQPQSLQDISAVEDEIQNKIEAARQESKQLHAQINKAKHKIQDASLFQMANKVTSLTKNKINLKPNIVLKGHNNKISDFRWSRDSKRILSASQDGFMLIWDSASGLKQNAIPLDSQWVLSCAISPSSTLVASAGLNNNCTIYRVSKENRVAQNVASIFKGHTCYISDIEFTDNAHILTASGDMTCALWDIPKAKRVREYSDHLGDVLALAIPEEPNSENSSNTFASCGSDGYTYIWDSRSPSAVQSFYVNDSDINALRFFKDGMSIVAGSDNGAINMYDLRSDCSIATFSLFRGYEERTPTPTYMAANMEYNTAQSPQTLKSTSSSYLDNQGVVSLDFSASGRLMYSCYTDIGCVVWDVLKGEIVGKLEGHGGRVTGVRSSPDGLAVCTGSWDSTMKIWSPGYQ | ~2 fold | ~3.5 fold | – |
| GSTCdc24 (NH2-terminal 472 amino acids of Cdc24p fused to GST) (domain or fragment) MAIQTRFASGTSLSDLKPKPSATSISIPMQNVMNKPVTEQDSLFHICANIRKRLEVLPQLKPFLQLAYQSSEVLSERQSLLLSQKQHQELLKSNGANRDSSDLAPTLRSSSISTATSLMSMEGISYTNSNPSATPNMEDTLLTFSMGILPITMDCDPVTQLSQLFQQGAPLCILFNSVKPQFKLPVIASDDLKVCKKSIYDFILGCKKHFAFNDEELFTISDVFANSTSQLVKVLEVVETLMNSSPTIFPSKSKTQQIMNAENQHRHQPQQSSKKHNEYVKIIKEFVATERKYVHDLEILDKYRQQLLDSNLITSEELYMLFPNLGDAIDFQRRFLISLEINALVEPSKQRIGALFMHSKHFFKLYEPWSIGQNAAIEFLSSTLHKMRVDESQRFIINNKLELQSFLYKPVQRLCRYPLLVKELLAESSDDNNTKELEAALDISKNIARSINENQRRTENHQVVKKLYGRVV | – | – | binds |

— paper PMC2150586 (The Journal of Cell Biology, 1999)
